Data from paper PMC11604724 (MedComm, 2024).

B1: mAb 3711 (antibody, V domains shown)
VH: EVQLVESGGGLVKPGRSLRLSCAASGFTFSDYYMSWIRQAPGKGLEWVSYISSSGSTIYYADSVRGRFTISRDNAKNSLYLQMNTLRAEDTAVYYCARGGWELRSLAGGYYGMDVWGQGTTVTVSS
VL: DIVMTQTPFTLSASVGDRVTITCRASQGIRNDLGWYQQKPGKAPKCLIYAASSLLSGVPSRFSGSGSGTEFTLTISSLQPEDFATYYCLQHNSYPWTFGQGTKLEIK
B2: mAb 26434 (antibody, V domains shown)
VH: QVQLQQSGAEVKKPGASVKVSCKASGYTFSRYGISWVRQAPGQGLEWMGWISAYKGNTNYAQKFQGRVTMTTDTSTSTAYMELRSLRSDDTAVYYCARSPPDFLGWFDPWGQGTLVTVSS
VL: LPVLTQPPSVSVSPGQTASITCSGDKLGDKFTCWYQQKPGQSPVQVIYQDTHRPSGIPERFSGSNSGNTATLTISGTQAVDEADYYCQAWDSSTVIFGGGTKLTVL

How the values were obtained:
[1] = target: extracellular domain of SARS‐CoV‐2 (WT) spike (S‐ECD) for cryo-EM (SARS-CoV-2 WT, proline mutation at residue 986 | proline mutation at residue 987, N-linked glycans (Asn17, Asn122, Asn165 and others)); assay: cryo-EM structure; settings: both partners purified
[2] = target: SARS‐CoV‐2 WT spike trimer protein (SARS-CoV-2, UniProt P0DTC2); assay: BLI; settings: both partners purified

| Binder | stoichiometry N [1] [Fabs per spike trimer] | Kd [2] [nM] |
| --- | --- | --- |
| B1 | 3 | – |
| B2 | – | 670 |
